From the nanobody polyreactivity screen of Harvey et al. (2022)

Test: yeast display, Sf9 membrane polyspecificity reagent, FACS + sequencing; frameworks hold sequencing errors
In short: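 A nanobody's polyreactivity label depends on the gate it was sorted from. Yeast display cells were stained with 10% biotinylated, detergent-solubilized Sf9 membrane reagent for 1 hour at 4 °C, enriched on streptavidin microbeads and sorted by FACS. The low and high (top ~1%) gates were set on anti-HA fluorescence for expression and streptavidin fluorescence for reagent binding.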

Row | Sequence | polyreactivity (PSR sort gate)
1 | QVQLVESGGGLVQAGGSLRLSCAASGRIFWFYAMGWYRQATGKERELVAAINTSVGRTHYADSVKGRFTISRDNAKNTVYLQMNSLKPEDTAVYYCASDVKRYGWEYGYWGQGTQVTVSS | low polyreactivity
2 | QDQLVESGGGLVQAGGSLRLSCAASGRIFAGYAMGWYRQAPGKERELVATISSGGSTYYADSVKGRFTISRDNAKNTVYLQMHSLKPEDTAVYYCAAEYGTRQYSSYYKLFNYWGQGTQVTVSS | low polyreactivity
3 | QVQLVESGGGLVQAGGSLRLSCAASGRTFTRNAMGWYRQAPGKERELVASITNGVSTNYADSVKGRFTISRDNAKNTVYLQMNSLKPEDTAVYYCNKGPLISYAYRYYQPYDYWGQGTQVTVSS | low polyreactivity
4 | QVQLVESGGGLVQAGGSLRLSCAASGSTFYTNAMGWYIQAPGKERELVAAISRGGITYYADSVKGRFTISRDNAKNTVYLQMNSLKPEDTAVYYCNTQIVTEYDYWGQDTQVTVSS | low polyreactivity
5 | QVQLVESGGGLVQAGGSLRLSCAASGRTFYYNAMGWYRQAPGKEREFVAAIRYSGGITYYADSVKGRFTISRDNAKNTVYLQMNSQKPEDTAVYYCAADYVSRRYYYWGQGTQVTVSS | high polyreactivity
6 | QVQLVESGGGLVQAGGSLRLSCAASGRIFSLNTMGWYRQAPGKERELVATITKRGGNTYYADSVKGRFTISRDNAKNTVYLQMNSLKPEDTAFYYCAVPRSITYRYGYWGQGTQVTVSS | high polyreactivity
7 | QVQLVESGGGLVQEGGSLRLRCAASGRIFYNYAMGCYRQAPGKERELVAAITGRGGRTYYADSVKGRFTISRDNAKNTVYLQINSLKPEDTAVYYCSVRAGTAGYPKYDYWGPGTQVTVSS | high polyreactivity
8 | QVQLVESGGGLVQAGGSLRLSCAASGFIFGLYAMGWYRQAPGKERELVAAISRRGGSTYYADSVKGRFTISLDNAKNTVYLQMNSLKPEDTAVYYCATDHSYIDDWGQGTEVTVSS | high polyreactivity
9 | QVQHVESGGGLVQAGGSNRLSCAASAFIFRSNAMGWYRQAAGKEREFVPAISSRGGSTTYADSVKGRFTISRDNAKITVYLQMKSLKPEDTAVYYCARDCYYYPQYRKRYYYWGQGTQVSVSS | high polyreactivity
10 | QVHLVESGGGLVQAGGSLRLSCAASGSIFSYYAMGWYRQAPGKERELVAAISQSGGSTYYSDSVKGRFTISRDNAKNTVYLQMNSLKPEDTAVYYCNSGRGTFKRYTALQYWGQGTQVTVSS | low polyreactivity
11 | QDQLVESGGGLVQAGGSLRLSCAASGGTFLTYAMGWYRQAPGKERELVAAISSGGSTYYADSVKGRFTISRDNAKNTVYLQMNSLKPEDTAVYYCNADPYSRFWGPDYGYWGQGTQVTVSS | low polyreactivity
12 | QVQLVESGGGLVQAGGSLRLSCAASGRIFYANAMGWYRQAPGKERELVAAISSGGSTYYADSVKGRFTISRDNAKNTVYLQMNSLKPEDTAVYYCAALYWVYFYSEYGPWRYDYWGQGTQVTVSS | low polyreactivity
13 | QVQLVESGGGLVQAGGSLRLSCAASGSIFPGNAMGWYRQAPGKERELVAVIDFSGASTYYADSVKGRFTISRDNAKNTVYLQMNSLKPEDTADYWGQGSQVTVSS | low polyreactivity
14 | QVQLVESGGGLVQAGGSLLLSCAASGGTFHYNAMGWYIQAPGKERELVAAITESGGRTYYADSVKGRFTISRDNAKNTVYLQMNSLKPEDTAVYYCNADQDSDAADRSAYWGQGSQVTVSS | low polyreactivity
15 | QVQLVESGGGLVQAGGSLRLSCAASGSIFGVYAMGWYRQAPGKERELVAAISWSGTSTYYADSVKGRFTISRDNAKNTVYLQMNSLKPEDTAVYYCNGDWVLDGYDYDSWGQGTQVTVSS | low polyreactivity
16 | QVQLVESGGGLVQAGGSIRLSCAASVSTFFVYTMGWYRQATGKGMELVAAISGSGGSTAYADSVKGRFTISRDNAKNTVYLQLNSLKPEDTAVYYCAARRHVYLRGSTFEFNYWGQGTQVTVSS | high polyreactivity
17 | QVQLEESGAGLVQAGGSLRLSCAASGRTFWFYTMGLYRQAPGKERELVAAISSAGSTNYADSVKGRFTISRDNAKNTVYLQMNSLKPEDTAVYYCNARFPVGPSEDAVWYYPKYDYWGQGTQVTVSS | low polyreactivity
18 | QVQLVESGGGLVQAGGSLRLSCAASGRTFRYAMGWYRQSPGKERELVAGITTRGTSTYYADSVKGRFTISRDNAKNTVYLQMNSLKPEDTAVYYCNARPARAVYIHTPTYRYDYWGQGTQVTVSS | high polyreactivity
19 | QVQLVESGGGLVQAGGSLRLSCAASGLTFAYYAMGWYRQPPGKERELVAAITSGDGTNYADSVKGRFTISRDNAKNTVYLQMNSLKPEDTAVYYCATDTWSPGYDYWGQGTQVTVSS | low polyreactivity
20 | QLQIVESGGGLVQAGGSLRLSCAASGSTFSYNAMGWYRQAPRKQRELVASISTSGGSTYYADSVKGRFTISRDNANNTVYLEMNSLKPEDTAVYYCNAPTSDIYSDFDSWGQGTQVTVSS | low polyreactivity
21 | QVQLVESGGGLVQAGGSLRLSCAASGYTRFYAMGWYRQAPGKERELVAAISSSGGTTYYADSVKGRFTISRDNAKNTVYLQMNSLKPEDTAVYYCAKYVSYSRTLYDYWGQGTQVTVSS | high polyreactivity
22 | QVQLVESGGGLVQAGGSLRLSCAASGSTIRDYAMGWYRQAPGKERELVAVIDNSGGRTYYADSVKGRFTISRDNAKNTVYLQMNSLKAEDTAVYYCNTRRIAQYGYWGQGTQVTVSS | high polyreactivity

Row | Sequence | polyreactivity (PSR sort gate)
23 | QVQLVESGGGLVQAGGSLRLSCAASGRIFYRYAMGWYRQAPGKERELVAAINKSGGSTYYADSVKGRFTISRDNGKNTVSLQMKSLKPEDTAVYYCTAVYYWYKGDYWGQGTQVTVSS | high polyreactivity
24 | QVQLVESGGGLVQAGGSLRLSCSASGFTFYVNAMGWYRQAPGKERELVAAITDDGDSTYYADSVKGRFTISRDNAKNTVYLQMNSLKPEDTAVYYCKTVYGPDLDGTEYDYWGQGTQVTVSS | low polyreactivity
25 | QVQLVESGGGLVQEGGSLRLSCSDSGRILRRYTMGWYRQAPGKERELVAAISSGGNTYYADSVKGRFTISRDNAKNTVYLQMNSLKPEDTGVDYCAARVRRYWEYDYWGKGTQVTVSS | low polyreactivity
26 | QVQLVESGGGLVQAGGSLRLSCAASGRIFTHNAMGWYRQAPGKERELVAAITSGGRTTYADSVKGRFTFSRDNAKNTVYLQMIRLKPEDTAVYYCNADTGLGSLDFDNRDYWGQGTQVTVSS | low polyreactivity
27 | QVQLVDSGGGLVQAGGSLRLSCAASGITFWWYAMGWSRPAPGKEREVVAAISQRGGTYYADSVKGRFTISRDKAKNTVFLQMKSLKPDDTAVDSCAAVVYSRYAPYSAQYDDWGQGTQVTVSS | high polyreactivity
28 | QVQLVESGGGLVQAGGSLRLSCAASGFTFYAYAMGWYRQAPGKERELVAAISRTGGRTYYADSVKGRFTISRDNAKNTVYLQMNSLKPEDTAVYYCNRAGLHSTGYDYWGQGTQVTVSS | high polyreactivity
29 | QVQLVESGGGLVQAGRSLRLICAASGSIFRKYAMCWYRQAPVKESELVAAINYSGGNTYYADSVKGRFTISRDNSKNTVYLQMNSLKPEDTAVYFCAADSVRHYWWAYYYWGQVTQVTVSS | low polyreactivity
30 | QVQREESGGGLVQAGGSLRLSCAASGSILYYNAMGWYRQAPGKEREFVAGISSSGGSTYYADSVKGRFTISRDNAKNTVYLQMKSLQPEENAVYYCAKRTYWRRGWCFDFWGQGTQVTVSS | high polyreactivity
31 | QVQLVESGGGLVQAGGSLRLSCAASGRIFYRYAMGWYRQAPGKERELVAAISRNGGSTNYADSVKGRFTISRDNAKNTVYLQMNSLKPEDTAVYYCAARPPTTRPYDYDYWGQGTQVTVSS | high polyreactivity
32 | QVQLVESGGGLVQAGGSLRLSCAASGQIFHSYAMGWSRQAPGKERELVAAISRGGGSTYYADSVKGRFTISRDNAKNTVYLQMNSLKPEDTAVYYCARENLTRYDYWGQGTQVTVSS | high polyreactivity
33 | QVQLVESGGGLVQAGGSLRLSCAASGRTFNSYAMGWYRQAPGKERELVAAISWNTGSTYYADSVKGRFTISRDNAKNTVYLQMNSLKPEDTAVYYCAAEGELYTAFGTLSFDYWGHGTQVTVSS | high polyreactivity
34 | QVQLVESGGGLVQAGGSLRLSCAASGSTFYSNAMGWYRQAPGKERELVAAISRRGSSTYYADSVKGRFTISRDNAKNTVYLQMNSLKPEDTAVYYCNAVGTGGYSSEYGYWGQGTQVTVSS | high polyreactivity
35 | QVQLVESGGGLVQAGGSLRLSCAASGSTFDIYVMGWYRQAPGKERELVAAISRVGNTSYADSVKGRFTISRDNAKNTVYLQMNSLNPEDTAVYYCAADAPSWYDRQYDYWGQGNQVTVSS | low polyreactivity
36 | QVQLVESGGGLVQAGGSLRLSCAASGLIFYVYAMGWYRQAPGKERELVASITWSGGRTYYADSVKGRFTISRDNAKNTVYLQMNSLKPEDTAVYFCAKDWWGGPPNVYHSEYEYWGQGTQVTVSS | low polyreactivity
37 | QVQLVESGGGLVQAGGSLRLSCAASGSTFLSNAMGWYRPAPGKERELVAGIDYNDGSTYYADSVKGRFTISRDNAKNTVYLQMNSLKPEDTAVYYCAARWVFRRYVIGMDYWGQGTQVTVSS | low polyreactivity
38 | QVQLVESVGGLVQAGGSLRLSCAASGFTFGRYAMGWYRQAPGKERELVAAISFSGGRTYYADSVKGRFTISRDNAKNTVYLQMNSLKPEDTAVYYCAARRRQEHVGRSSYARYDYWGQGTQVTVSS | high polyreactivity
39 | QDQHVESGGGLVQAGGSLRLSCAASGSTFKIYAMGWYRQPHGKESELVARITGRGGSTYYADSVKGRFTISRDNAKNTVYLQMNSLKPEDTAVYYCAARVYTYYDDLHKRYYWGQGTQVTVSS | high polyreactivity
40 | QVQLVESGGGLVQAGGSLRLSCAASGRIFSQYAMGWYRQAPGKERELVAAISRRTGSTYYADSVKGRFTISRDNAKNTVYLQMNSLKPEDTAVYYCAAASKPWYYYWGQGTQVTVSS | high polyreactivity
41 | QVQLVESGGGLVQAGGSLRLSCAASGSIFGKNAMGWYRQAPGKERELVAAITSTGTSTYYADSVKGRFTISRDTAKNTVYLQMNSLKAEDTAVYYCADETARWDYGYWGQGTQVTVSS | low polyreactivity
42 | QVQLVESGGGLVQAGGSLRLSCAASGRTFTRYAMGWYRQAPGKERELVAAISWSGGSTYYADSVKGRFTISRDNAKNSVYLQMNSLKPEDTAVYYCNAYYYYPEFNYWGLGTQVTVSS | high polyreactivity
43 | QVQLVESGGGLVQAGGSLRLSCAASGSIFGLYAMGWYRQAPGKERELVAAISTSSGRTYYADSVKGRFTISRDNAKNTVYLQMNSLKPEDTAVYYCNARVYVTSGFRYDYWGQGTQVTVSS | high polyreactivity
